Read-outs that look alike come from different tables or passages of the source.
B3: Stn1 (natural protein, human, UniProt Q9H668 1-368, looked up)
chain: MQPGSSRCEEETPSLLWGLDPVFLAFAKLYIRDILDMKESRQVPGVFLYNGHPIKQVDVLGTVIGVRERDAFYSYGVDDSTGVINCICWKKLNTESVSAAPSAARELSLTSQLKKLQETIEQKTKIEIGDTIRVRGSIRTYREEREIHATTYYKVDDPVWNIQIARMLELPTIYRKVYDQPFHSSALEKEEALSNPGALDLPSLTSLLSEKAKEFLMENRVQSFYQQELEMVESLLSLANQPVIHSASSDQVNFKKDTTSKAIHSIFKNAIQLLQEKGLVFQKDDGFDNLYYVTREDKDLHRKIHRIIQQDCQKPNHMEKGCHFLHILACARLSIRPGLSEAVLQQVLELLEDQSDIVSTMEHYYTAF

Key:
Test in all cases: cryo-EM structure
Stn1 = biological target: B3
Ctc1 (His6-MBP-Ctc1) [1] = biological target: T1, Ctc1 (His6-MBP-Ctc1) (human, UniProt Q2NKJ3 1-1217)
T1 sequence (looked up): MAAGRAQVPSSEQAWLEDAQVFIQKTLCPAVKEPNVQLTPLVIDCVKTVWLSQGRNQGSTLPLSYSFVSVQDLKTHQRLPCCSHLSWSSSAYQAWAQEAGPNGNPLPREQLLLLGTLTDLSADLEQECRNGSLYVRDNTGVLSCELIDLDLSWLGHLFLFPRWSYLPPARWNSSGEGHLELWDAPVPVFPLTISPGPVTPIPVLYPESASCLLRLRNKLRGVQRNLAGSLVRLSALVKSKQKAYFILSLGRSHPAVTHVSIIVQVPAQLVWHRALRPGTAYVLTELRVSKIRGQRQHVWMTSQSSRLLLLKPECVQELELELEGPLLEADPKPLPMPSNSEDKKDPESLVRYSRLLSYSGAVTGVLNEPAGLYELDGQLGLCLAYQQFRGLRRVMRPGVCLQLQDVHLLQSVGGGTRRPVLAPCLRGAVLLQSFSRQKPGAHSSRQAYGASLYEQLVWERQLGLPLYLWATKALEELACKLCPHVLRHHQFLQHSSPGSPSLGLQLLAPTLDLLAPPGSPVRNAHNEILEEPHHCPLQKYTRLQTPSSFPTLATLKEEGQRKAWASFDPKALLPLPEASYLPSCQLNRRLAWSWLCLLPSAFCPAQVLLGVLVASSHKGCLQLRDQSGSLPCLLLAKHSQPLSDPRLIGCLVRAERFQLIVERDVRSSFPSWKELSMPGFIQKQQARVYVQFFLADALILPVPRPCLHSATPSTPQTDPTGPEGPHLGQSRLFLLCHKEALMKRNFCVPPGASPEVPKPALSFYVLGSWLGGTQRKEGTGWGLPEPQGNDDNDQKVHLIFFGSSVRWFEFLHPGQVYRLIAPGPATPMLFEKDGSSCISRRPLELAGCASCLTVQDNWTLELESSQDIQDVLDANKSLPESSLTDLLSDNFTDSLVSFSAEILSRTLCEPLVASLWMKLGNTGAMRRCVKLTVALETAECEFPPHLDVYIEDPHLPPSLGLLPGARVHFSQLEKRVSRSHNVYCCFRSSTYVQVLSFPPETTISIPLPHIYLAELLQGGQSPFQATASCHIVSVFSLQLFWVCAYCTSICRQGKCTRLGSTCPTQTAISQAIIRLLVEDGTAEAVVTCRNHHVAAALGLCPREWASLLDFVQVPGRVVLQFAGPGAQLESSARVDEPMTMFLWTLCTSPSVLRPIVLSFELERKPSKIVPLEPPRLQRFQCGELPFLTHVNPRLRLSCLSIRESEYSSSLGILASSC

Ctc1 (His6-MBP-Ctc1) [2] = biological target: T1, Ctc1 (His6-MBP-Ctc1); remark: listed apart in the source

B1: Ten1 (natural protein, human, UniProt Q86WV5 1-123, looked up)
chain: MMLPKPGTYYLPWEVSAGQVPDGSTLRTFGRLCLYDMIQSRVTLMAQHGSDQHQVLVCTKLVEPFHAQVGSLYIVLGELQHQQDRGSVVKARVLTCVEGMNLPLLEQAIREQRLYKQERGGSQ
B1: binds (Stn1).

B2: POT1(ESDL) (natural protein, human, UniProt Q9NUX5 1-634, looked up)
chain: MSLVPATNYIYTPLNQLKGGTIVNVYGVVKFFKPPYLSKGTDYCSVVTIVDQTNVKLTCLLFSGNYEALPIIYKNGDIVRFHRLKIQVYKKETQGITSSGFASLTFEGTLGAPIIPRTSSKYFNFTTEDHKMVEALRVWASTHMSPSWTLLKLCDVQPMQYFDLTCQLLGKAEVDGASFLLKVWDGTRTPFPSWRVLIQDLVLEGDLSHIHRLQNLTIDILVYDNHVHVARSLKVGSFLRIYSLHTKLQSMNSENQTMLSLEFHLHGGTSYGRGIRVLPESNSDVDQLKKDLESANLTANQHSDVICQSEPDDSFPSSGSESDLVSLYEVERCQQLSATILTDHQYLERTPLCAILKQKAPQQYRIRAKLRSYKPRRLFQSVKLHCPKCHLLQEVPHEGDLDIIFQDGATKTPDVKLQNTSLYDSKIWTTKNQKGRKVAVHFVKNNGILPLSNECLLLIEGGTLSEICKLSNKFNSVIPVRSGHEDLELLDLSAPFLIQGTIHHYGCKQCSSLRSIQNLNSLVDKTSWIPSSVAEALGIVPLQYVFVMTFTLDDGTGVLEAYLMDSDKFFQIPASEVLMDDDLQKSVDMIMDMFCPPGIKIDAYPWLECFIKSYNVTNGTDNQICYQIFDTTVAEDVI
modifications: phosphorylated in insect cells (sites not determined)
B2: binds (Ctc1 (His6-MBP-Ctc1) [1]).

B3: binds (Ctc1 (His6-MBP-Ctc1) [2]).

Source: article PMC11246235 (Cell, 2024)
